In the supplement of paper PMC12042874:
± gives the uncertainty stated by the source.

Assay: amyloid nucleation score (Sup35N fusion, yeast selection) (log enrichment); library NNK2; higher = more nucleation; inactive = no reads after selection
Method in brief: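 Sup35N fusions to peptides of 20 random codons were expressed in psi-negative yeast, induced 24 hours with 100 μM copper sulfate, and grown 7 days at 30°C on medium lacking adenine and uracil. Input and output plasmid inserts were sequenced by Illumina. The nucleation score is the DiMSum log enrichment of output over input reads, centred on the mode score of non-aggregating sequences. Sequences with under 100 input reads were excluded.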

Row | Substance | amyloid nucleation score
1 | TDCVKTRPCGRLVKIPLYME | -0.708 ± 1.1
2 | TDKIWSCHLGQTAWLSKSSG | 0.385 ± 0.33
3 | TDLYCFSSI | -1.29 ± 1
4 | TDVAY | 0.258 ± 0.2
5 | TDYGLVALSQWKRVCLIQSG | 0.176 ± 0.22
6 | TDYLGLWPWVSSSLGRVVTW | 1.22 ± 0.45
7 | TEIRLNVSLRSRRGPCPTRL | 6.06 ± 0.06
8 | TETAL | -1.05 ± 0.61
9 | TFAIIQYRNCLVTPISFKHF | 6.5 ± 0.081
10 | TFATYTISNCLYVPRPVT | 0.879 ± 0.19
11 | TFFGWLALRIWARYRYE | inactive
12 | TFLLAFFIFFLNG | -0.306 ± 0.53
13 | TFLTLA | 0.979 ± 0.4
14 | TFNRFFRCSVFAFRA | 4.53 ± 0.062
15 | TFPMEFLPF | -1.12 ± 0.49
16 | TFRYVWLSHPV | 3.63 ± 0.11
17 | TFTFDGRSSNFG | -0.343 ± 0.55
18 | TFVLSNC | -0.356 ± 0.65
19 | TGCMSFSWPWTLLVSPIQLS | -0.651 ± 0.48
20 | TGDSYLYRWVSARFGHRLRS | -0.314 ± 0.27
21 | TGFNRCGSRWWLLVSNVKLV | -0.388 ± 0.54
22 | TGHFKKYVKGEGADDSNCAL | 0.347 ± 0.29
23 | TGNVTGRLFWNVFVRYSGVL | -0.03 ± 0.55
24 | TGQKFT | -0.615 ± 0.41
25 | TGTFRIAWM | 6.64 ± 0.063
26 | TGVIAYVRKVGDLSSCVYSC | 3.6 ± 0.14

Row | Substance | amyloid nucleation score
27 | TGYAWGG | 2.16 ± 0.22
28 | THKNLEC | 0.681 ± 0.17
29 | THLKYTFWIFV | 2.62 ± 0.14
30 | THLLVVWFDNRYF | 0.978 ± 0.74
31 | THQRAYCFSSVYWVNVSKSG | -0.006 ± 0.74
32 | THTLRGLQANRMISNNMDTI | -0.402 ± 0.61
33 | TICVSSVRRTGKGSWVRDWA | 0.356 ± 0.5
34 | TIFLFLFSMVSVVICLMVLP | -1.31 ± 0.55
35 | TIGRGYGSISQRHAIRLGDN | 0.164 ± 0.8
36 | TIIRMKLS | 1.39 ± 0.39
37 | TIWVATLDFPNSYMSSALFV | 4.27 ± 0.093
38 | TKDERFV | 0.218 ± 0.29
39 | TKLLP | -0.149 ± 0.55
40 | TLCRGTVLVAFGSPNITPSK | 3.89 ± 0.059
41 | TLCTVSHLNDSLLIFIRFVV | inactive
42 | TLFSYEYVYKFMGPRFKGAG | -0.746 ± 0.54
43 | TLGTFVWVFRSFTCLLLEEQ | 3.29 ± 0.057
44 | TLGTLRQ | 1.59 ± 0.23
45 | TLGYKFWMGRYRVNSAYGFE | -0.005 ± 0.61
46 | TLMCFYYFEQ | 9.395 ± 0.053
47 | TLMQSYVQFWYTLYSHNNWL | -0.698 ± 0.24
48 | TLPRSII | -0.113 ± 1.1
49 | TLPVPPGCRFVEITV | 0.293 ± 0.53
50 | TLRTFRRAQGTRYVYLK | 0.121 ± 0.23
51 | TLSKVFRVRPGSMTTHCYIV | inactive
52 | TLTSSCVNFINMLHEIFRYS | -0.623 ± 1

Row | Substance | amyloid nucleation score
53 | TLVSWYSTTEPAC | -1.13 ± 0.78
54 | TLWYRLFLVSISVFPKFVTE | -0.451 ± 1.1
55 | TLYWNKSQRYGLLWFKFVSL | -0.277 ± 1
56 | TMMSLSGIVL | -0.376 ± 0.48
57 | TMSFFLGSLEVL | -1.09 ± 0.48
58 | TMYFILLCMLLRGFSSGPPP | -1.04 ± 0.78
59 | TNCHLFVSFFLCVDVYTVVC | 4.72 ± 0.063
60 | TNDVTSWKLTHCYLWPKADF | -0.328 ± 0.32
61 | TNHYSSVRS | -0.195 ± 0.54
62 | TPSFLLMICRNMVLGCG | 0.472 ± 0.8
63 | TQSWDEWSYGNITGSTSYRL | 0.25 ± 0.23
64 | TQSWVAISLVRHRSWGSWLG | 3.57 ± 0.07
65 | TRDSLGRKGYRSAVLTPSMP | 1.29 ± 0.14
66 | TRETHLGNAFA | 0.674 ± 0.53
67 | TRFCCVATHFDYNLIIFYYP | 0.554 ± 0.23
68 | TRGITCRLAYLQSLVNE | 0.383 ± 0.43
69 | TRGIVGFPD | 3.93 ± 0.067
70 | TRIRWWF | 4.21 ± 0.067
71 | TRLLIVDFNIFSIEIVHLMS | 2.41 ± 0.071
72 | TRMHESIWV | 1.73 ± 0.077
73 | TRNAFNCTENISTLPTARYL | -0.399 ± 0.46
74 | TRSHLFGYSVMGSSLIDSLY | -1.24 ± 0.79
75 | TRSMSSAPADCVASGT | -0.512 ± 0.76
76 | TRVAYRI | 0.219 ± 1
77 | TRYHLHSALT | -0.12 ± 1
78 | TSDPEFV | -0.627 ± 0.49

Row | Substance | amyloid nucleation score
79 | TSHRWAMGSRYEVHIAVGMF | 1.13 ± 0.26
80 | TSISLLFWCVYSLASVGFSA | -0.586 ± 1.1
81 | TSLMRYIPMGHLKAWIFLSI | 0.049 ± 1.1
82 | TSNLFHLYGACRRYMGRCSA | 0.434 ± 0.66
83 | TSNNVCCARHPI | 1.37 ± 0.29
84 | TSQLSFYKHSLVY | inactive
85 | TSSFIRLNYSNALLNKFWSN | -1.99 ± 0.75
86 | TSTCNRRVIWMHLEPGELCV | -0.375 ± 0.76
87 | TSVASGRNGNSPVHNALAWG | 0.2 ± 0.35
88 | TSVYFHFGFPPWVGVPRRLT | 3.17 ± 0.077
89 | TSYIVDTSSLFITRASTG | 0.336 ± 0.44
90 | TSYYLDL | -1.31 ± 0.75
91 | TTDSGAVYSGLPE | 0.542 ± 0.19
92 | TTICVFNVGESHMRLSGSVG | -0.053 ± 0.28
93 | TTILEL | -0.305 ± 0.79
94 | TTRYANWNMNINLGL | 6.613 ± 0.046
95 | TVALNSWARHGEML | -0.375 ± 1.1
96 | TVCWEWSSLWDTPSLKSAD | 0.536 ± 0.37
97 | TVFFIFHLLVYLPMFTRALD | 8.55 ± 0.043
98 | TVIGLLIIVVGSYDVCSNVW | 6.163 ± 0.041
99 | TVILV | inactive
100 | TVLLGHLEGRVYWEPMIQQV | 0.36 ± 0.64
101 | TVPGNEEV | 0.028 ± 0.53
102 | TVPTMVW | -0.124 ± 0.29
103 | TVRASCFRVSVRKEKKIVVA | 0.233 ± 0.77
104 | TVRRTRFLNNISFNGFNVFV | 7.383 ± 0.054

Row | Substance | amyloid nucleation score
105 | TVSHDTGFGRNFFHVLLLS | -0.012 ± 1.1
106 | TVSSIKFVVYSGLRWYELVY | 2.27 ± 0.1
107 | TVTVDIFSKEWTGGTNFCDI | -0.179 ± 0.76
108 | TVWGQECYW | 5.74 ± 0.077
109 | TVWVIVERYMGFLYFLYNTS | inactive
110 | TWCMRMNCSAFRKGVVNYSR | 2.91 ± 0.078
111 | TWIGYHFGI | inactive
112 | TWLIRPKWVSVQVIRMLPMV | 1.11 ± 0.41
113 | TWRHSPCLVRTEFERKLTRL | 0.039 ± 0.49
114 | TYAYYH | 5.61 ± 0.061
115 | TYEIFLVPS | 0.41 ± 0.74
116 | TYFVLYVCED | 0.311 ± 0.23
117 | TYGTTELVLHRTEINMMRNQ | 3.25 ± 0.12
118 | TYIFLSRIGQFSKLQYVMRL | 5.37 ± 0.056
119 | TYLDGAYLLFDSARFAKAVK | 0.144 ± 0.24
120 | TYLLLWSCGWLSWRVICALR | 4.66 ± 0.089
121 | TYQFMHVRLFRPMTSFIVYG | 0.36 ± 0.56
122 | TYVSKIWMKRCESDILRKVI | inactive
123 | TYYFVVQFI | 8.284 ± 0.036
124 | VAFIFRSSWKSIPKTPKMYS | inactive
125 | VAKLLMAGVVKPCRGGRCVG | 0.936 ± 0.16
126 | VAPTLYLVCRIIRPNPNSYY | -0.228 ± 0.53
127 | VARHIHLTRSRNNFSSGRKA | 0.958 ± 0.4
128 | VASRFDSSYMCKMAFI | -0.651 ± 0.54
129 | VATGLRAWWWTGKEEVGLVS | 1.69 ± 0.24
130 | VAYYEDVLSSYFIERW | -0.392 ± 0.29

Row | Substance | amyloid nucleation score
131 | VCDFNVLDGCGNPGLL | -0.67 ± 1.1
132 | VCFLQFYLSIFTTHTVSTYK | -0.547 ± 0.76
133 | VCNFSTLELVVEDGSKAYRG | -0.079 ± 0.3
134 | VCQRPEMVLNSIETLQPRWS | 0.211 ± 0.21
135 | VCRHFVRVKDQMDRTFNDKQ | 0.18 ± 0.28
136 | VCVLKGDGGL | 0.339 ± 0.55
137 | VCWYG | 0.034 ± 0.3
138 | VCYYMWWFVYKHRSWQSGSW | -0.639 ± 0.74
139 | VDAVLND | 0.432 ± 0.29
140 | VDEQSLNR | 0.62 ± 0.41
141 | VDILGMGRNHM | -1.04 ± 0.78
142 | VDLGLLKKTNFTQLYFGDC | 0.317 ± 0.16
143 | VDLRQCENLHRPWRFRRSGK | 1.4 ± 0.2
144 | VDRDSPKYVHA | 0.917 ± 0.32
145 | VDRNVTSRSQVTSSFSWDIV | inactive
146 | VDSRGFHYDL | inactive
147 | VDVLLFRDYLNYSNLITHKV | -1.21 ± 0.54
148 | VDYLRYLIWFNRS | 0.058 ± 0.79
149 | VEFSLSCHNMIFYVLD | 6.762 ± 0.028
150 | VEMAFRFQRSKSCLSLDDFV | inactive
151 | VENLRNTIPKKEIGFSSVTG | -0.105 ± 0.3
152 | VERFLPVCFIPLISKRWTMY | 0.283 ± 0.54
153 | VERIKLFASAHYS | -0.203 ± 0.35
154 | VERLYDAYQIF | 0.316 ± 0.4
155 | VESIKGVSCLYMFSYVMLLQ | -0.021 ± 0.37
156 | VFCINAFRALQTYCCWMYF | 1.91 ± 0.087

Row | Substance | amyloid nucleation score
157 | VFDGRYVESILSFF | 3.96 ± 0.1
158 | VFELFAMCSVSKCCGVSSVT | 1.46 ± 0.4
159 | VFFGVQNKR | 3.04 ± 0.095
160 | VFFGVSNVVSATYSYWLRIQ | -0.627 ± 0.76
161 | VFGACGTM | 0.606 ± 0.32
162 | VFILSEYVTNAVK | -0.165 ± 0.54
163 | VFILWFTVSATIKKESFGNN | -2.34 ± 1.1
164 | VFMTSLY | -1.06 ± 0.49
165 | VFNWVRISPR | 8.81 ± 0.07
166 | VFPDSIGN | inactive
167 | VFQSDECVFLCSN | -0.561 ± 0.55
168 | VFSNDASDNTRGRWLGYGFF | inactive
169 | VFSYRLLSNPLSVPW | 4.83 ± 0.089
170 | VFTFVKERQSTWVVSFPQFL | 4.68 ± 0.066
171 | VFVIWCFVIICVSLLSVVDR | -0.795 ± 0.49
172 | VFYLSFIFLLWLSGKYLGHW | 1.25 ± 0.1
173 | VGAMSIMKVLNFHDDILTVT | inactive
174 | VGDRSFVMFSIFESAGSCCT | 1.03 ± 0.25
175 | VGDSMMWVTDRAKGVPYGGD | 0.285 ± 0.65
176 | VGEKCDL | -0.023 ± 0.55
